Test [1] concerns the target PapD (wild type) (E. coli) (UniProt P15319). The experiment in a line: soluble inhibition ELISA: 25-fold molar excess of peptide, 100 pmol/well PapD, G1′-19′WT-coated wells. (In general: In an ELISA, binding on a coated surface is turned into a signal by an enzyme label.)
For test [2] the target is unchanged. The experiment in a line: cell-based or functional assay.

Results on 3 substances are retold here after patent US7025971.

Sequence of PapD (wild type) (E. coli) (P15319 22-239 limits assumed): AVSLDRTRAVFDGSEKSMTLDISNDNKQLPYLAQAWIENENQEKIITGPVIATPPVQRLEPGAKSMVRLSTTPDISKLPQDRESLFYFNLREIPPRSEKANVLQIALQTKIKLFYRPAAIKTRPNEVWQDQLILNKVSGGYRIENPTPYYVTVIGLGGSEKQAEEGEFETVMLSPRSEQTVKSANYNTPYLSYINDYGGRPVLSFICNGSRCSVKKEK

As a reminder, the % Inhibition is the share of the control response that was lost under treatment. Low values mean a response near the control, high ones a response far below the control. Regarding G2′-21′amide (peptide), in test [1], the % Inhibition turned out to be 0%.
In test [2], “MBP/G1′-81′ (from UniProt P0AEX9 27-392)” came in with an HA titer of 82 and a Piliation percentage of 40%.
In test [2], “MBP/G1′-140′ (from UniProt P0AEX9 27-392)” displayed an HA titer of 4, a Piliation percentage of 10% and a decrease of HA titer of 30 fold.
